Experimental data from the DeepSol protein solubility set.

Assay: soluble on expression in E. coli; label from the status in PepcDB or PDB records

Row | Sequence | soluble on expression in E. coli
1 | MKTLIARHKAGEHIGICSVCSAHPLVIEAALAFDRNSTRKVLIEATSNQVNQFGGYTGMTPADFREFVFTIADKVGFARERIILGGDHLGPNCWQQENADAAMEKSVELVKAYVRAGFSKIHLDASMSCAGDTIPLAPETVAERAAVLCFAAESVATDCQREQLSYVIGTEVPVPGGEASAIQSVHITHVEDAANTLRTHQKAFIARGLTEALTRVIAIVVQPGVEFDHSNIIHYQPQEAQALAQWIENTRMVYEAHSTDYQTRTAYWELVRDHFAILKVGPALTFALREAIFALAQIEQELIAPENRSGCLAVIEEVMLDEPQYWKKYYRTGFNDSLLDIRYSLSDRIRYYWPHSRIKNSVETMMVNLQGVDIPLGMISQYLPKQFERIQSGELSAMPHQLIMNKIYDVLRAYRYGCAE | not soluble
2 | MPTLGFRFRAYTDEQTLRALKAQLKLACKIYNTLRWADIYFYQRDGKGLTQTELRQLALDLRKQDDEYKQLYSQVVQQIADRYYEARQRFFEGLARFPKEKKPHKYYSLVYPQYGWKILHVREIRKGSKKKLITLKLSNLGTFKVIVHRDFPLDKVKRVVVKLTRSERIYITFVVDHEFPKLPNTGKVVAIDVGVEKLLVTSDGEYFPNLRPYEKALWKVKHLHRELSRKKFLSNNWFKAKVKLARAYEYLKNLRTDLYMKLGKWFAEHYDVVVMEGIHAKQLVGKSLRSLRRRLSDVGFGELRGVLKYQLEKYGKKLILVNPAYTSKTCARCGYVKNDLSLSDRVFVCPNCGWIADRDYNASLNILRGSGSERPLVPVELRPLPVLWQGGAMKQEAPSFMRGLEHHHHHH | not soluble
3 | MKLIKNGKVLQNGELQQADILIDGKVIKQIAPAIEPSNGVDIIDAKGHFVSPGFVDVHVHLREPGGEYKETIETGTKAAARGGFTTVCPMPNTRPVPDSVEHFEALQKLIDDNAQVRVLPYASITTRQLGKELVDFPALVKEGAFAFTDDGVGVQTASMMYEGMIEAAKVNKAIVAHCEDNSLIYGGAMHEGKRSKELGIPGIPNICESVQIARDVLLAEAAGCHYHVCHVSTKESVRVIRDAKRAGIHVTAEVTPHHLLLTEDDIPGNNAIYKMNPPLRSTEDREALLEGLLDGTIDCIATDHAPHARDEKAQPMEKAPFGIVGSETAFPLLYTHFVKNGDWTLQQLVDYLTIKPCETFNLEYGTLKENGYADLTIIDLDSEQEIKGEDFLSKADNTPFIGYKVYGNPILTMVEGEVKFEGDK | not soluble
4 | MAQLMKRGFSTSAALAKAQLVKTPIQVHGVEGRYAAALYSAGHKQNKLDQISTDLNNVRSVYKDNKKFQEFVLDPTLKANKKKTAIEAISTKLGLTKETGNFLGLLAENGRLNKLESVVSSFESIMRAHRGELFVQVTSAEELSSSNQKALSDALSKIGKSGQKLTVTYAVKPSILGGLVVTIGDKYVDLSIASRVKKYKDALATAI | not soluble
5 | MADSPNRLNRAKIDSTTMKDPRVLNNLKLRELLLPKFTSLWEIQTEVTVDNRTILLTWMHLLCESFELDKSVFPLSVSILDRYLCKKQGTKKTLQKIGAACVLIGSKIRTVKPMTVSKLTYLSCDCFTNLELINQEKDILEALKWDTEAVLATDFLIPLCNALKIPEDLWPQLYEAASTTICKALIQPNIALLSPGLICAGGLLTTIETDNTNCRPWTCYLEDLSSILNFSTNTVRTVKDQVSEAFSLYDLEIL | soluble
6 | MKLSVLDQSPIAYGSNAKEALRQTTELAKVTEALGYHRFWVSEHHDASTLAGSSPEVLIAHLAAHTKKIRLGSGGVMLPHYSAYKVAENFKLLEALHPGRIDVGLGRAPGGMPIAKMALQEGKEQNIHKYPLQVKDVIGYLQDDLPTDHRFHGLKATPLIDTVPDVWLLGSSGGSANVAAENGTGFAFAHFINGEGGVQAVESYRETFQPSALFDRPQTSVAIFVICADTDEQADQIASSLDLSLIMLENGQLSKGTPSIESALSYPYSPFERARIRENRKRMIVGSPKAVRQQLVELARAYETEEVIVVTITHRFEDRIRSYELLGEEWNVN | not soluble
7 | MPPAKTKPKFPLCRLPSESVTNVLKIMKLSEIFNLSETSLKARSIVELAMQTIPSHLDLQGFPSKNYKLTVENDGQKVQVQFPHATDALTNFKQKLFRICKTFQIKTASVYFSCPVEAHIIELLGFIKKRKVQFQDFSIKGSVTEQNFKFFMTIGAQRFHLDMSETQPVTEVFALLKIQEVVLQNAAISSQMLNKVLKAWKTTSRLKKFRVIKNWKMDTSVVFQGLHVKQKSRSDTKKEYEIDLDGGGKATCCFKFEKGSSTNGFEFIVIN | not soluble
8 | MDHQFGYGVEVTGLSPSVTHNDLIDFFSFSGTIQDIDIVRSGEQACTAYVMFKDSYSQETAVLLTGATILDQRVCITRWGQHHEEFDFWNATSRGFEDESDSQHYAQRSEFNAGEAVTKAQEVVKIMLATGFVLGKDALSKAKAFDESHGVSAAAVARVSQLEQRIGLTDKIFTGLEAVRMTDQRYHVSDTAKSAVFATGRTAAAAATSVVNSSYFSSGALWLSGALERAAKAASDLGTRGSRQ | soluble
9 | MRGSHHHHHHGSMKRAVITGLGIVSSIGNNQQEVLASLREGRSGITFSQELKDSGMRSHVWGNVKLDTTGLIDRKVVRFMSDASIYAFLSMEQAIADAGLSPEAYQNNPRVGLIAGSGGGSPRFQVFGADAMRGPRGLKAVGPYVVTKAMASGVSACLATPFKIHGVNYSISSACATSAHCIGNAVEQIQLGKQDIVFAGGGEELCWEMACEFDAMGALSTKYNDTPEKASRTYDAHRDGFVIAGGGGMVVVEELEHALARGAHIYAEIVGYGATSDGADMVAPSGEGAVRCMKMAMHGVDTPIDYLNSEGTSTPVGDVKELAAIREVFGDKSPAISATKAMTGHSLGAAGVQEAIYSLLMLEHGFIAPSINIEELDEQAAGLNIVTETTDRELTTVMSNSFGFGGTNATLVMRKLKD | soluble
10 | SLPERGKTETADGEVFLQWLRQSVTDGMLSVNESDSVLHILARFVFVASPDVFYKYTSSAGDAVQDKKQLQKSFEALSVHHSRNGKGLYHYHKYDAPDKSGGFIKVSGYMIETNLIFRKGSCPSDSIWLSPRS | soluble
11 | MGSDKIHHHHHHMIDTFERTGPLMEASSYPAWAQQLINDCSPAKARVVEHELYQQMRDAKLSPQIMRQYLIGGWPVVEQFAVYMAKNLTKTRFGRHPGEDMARRWLMRNIRVELNHADYWVNWCAAHDVTLEDLHDQRVAPELHALSHWCWQTSSSDSLAVAMAATNYAIEGATGEWSAVVCSTGVYAEAFAEETRKKSMKWLKMHAQYDDAHPWEALEIICTLVGNKPSLQLQAELRQAVTKSYDYMYLFLERCIQLDKVKSPRGRVAALEM | not soluble
12 | MFEKSFTLCDMEPTEINGGRFYARPLHNDERIDDSPALQLVDAHLTVDEARTAWNHDTIYTWAVCEQTNVEMIALAALHITETATVLDIAPVGDPNRKLPNDPVLTPKTVGDAVTEIRGPITRWCTAHGINISN | not soluble
13 | GNWAEITDEISKIYQDNQYKIRQINDVDAVSDKRREALQALFEHTGRNVIVYYSAWLENGRRFSGQSTDFSVNDTDKNSFMTALHKLDQSKGLDLILHTPGGDVAATESLVDYIHALFGQDFRVIVPQLAMSAGTMIALSSKEIVMGKHSSLGPIDPQFNGLPAHGLLEEFEQAKKEVSENPQTAHIWQVILNKYNPTMLGEAKKAIQWSNSMVKQWLEKGMFLDEPDKEEKATRAIKELADHSVTLAHNRHISVSKALELGLNIKELESDPKLQDLVLTLHHLSVIAAQRGPLIKFVVNHDNRGTF | not soluble
14 | MGSDKIHHHHHHVSSPNIDIELDALKEAVSVALAHAKKLGSSAAEVAISKQQGLSVSTRTQEVETVEFNKDGALGITVYRGGCKGSSSTSDLSTDAIALAVKAADDIARYTSEDPFSGLADSALMAKNIRDLQLYYPQDIGAEELADLAIRAEKAGVDADTRIKYSDGATANAHTSAKVYANSHGFLQGYCSSRYSLSSVVIGEESDGNMQRDYDYTVSRKFADLLSPEEVGAKAAEKTLSRLDARKIATAKLPVLFAPEIATGLIGHLIGAISGGSLYRKSSFLLDSLHTHIFPDWFSIEEQPHILSGLASANYDSEGVATQDRRIIDRGQLETYLLTSYSARKLGMTNTGHAGGIYNWTLSHSNQTFADLIKAMNTGLIVTEVMGQGVNGVTGDYSRGAAGFYVENGVIQYPVEEITIAGNLKDMFIGIQGVAMDRDLRSSIRTGGILLSEMKIAGN | not soluble
15 | MGSDKIHHHHHHMPAAATLADWKAASVPDFLAERSRQELARLGNPGWWGPPDLEALAELMQLAAAEGWRILPAGRGTRLDWGGLGHPVDAVISTAACDRLIEHAAADLTVTVEAGMTLGQLQTILAETGQWLPFDPIAGESSSLGALVSTGMSGSLRHRYGSLRDFLIGITFLRHDGQWAKGGGRVVKNVAGYDMMKLLHGAWGSLGLIGKLTFRTYPLPNAWGTIACQGDREAILQLRSQLVRSDLTPVAFDLLSPAAAAELELRSQWTVLLRFGSVAASVQEQQQVVELQATRLGLAAMTVAEPVWGQLNQSFEPRSRSATLIKFALLPSQLPCLLAELEAIAPTALGRVHAASGAGWLVWPEAEPTVETLLRLRRHCEVAEGFLSVLAASVSLKQQLDIWGYPGQGLAVMRAIKRQFDPQSRLAPGRFLAGLEE | not soluble
16 | MGSDKIHHHHHHMVKLFREKKDMGSPKIQNFKRQTVLHKGQRTRLPATYIAPEDVSIWDIIRPNLGKDFSRFTVPVFMNEPLSFLQRLSENVQYNYLLEKAAKCSDDMERIEFYEFRFFFNWKKLKHQMKLSNSAHKTGFTFANSINYVAAFALATVSANHKRLSKPFNPLLLETFELERNGVRFLAEQVSHHPPISAVYAESDEFTVEGTVEPTLGFWMTKLLANPHAHLKLTFKKTGETYSWSAPKCAIYNVIMGKMYMNFTSHMKIESSGTYDAVFSFDNKGYYNHKGGDVHVEGHIFEGKNKIKALYGNWTLFLASCDNEDFKHHRKEYLRMFNETVSEKDQGPVVPGSKILWVSNQIPKLFDDQFHFTNFTLSLNEMYPGMSDTVAPTDSRRRKDMKALEDGKNDEAEEFKHKYEEEQRERRTTKTGDVPMWFAKNDEGHWAYKGGYWDRDYSNCLELFESLENSSTNSSNSSISSVD | not soluble
17 | MGNILIVKLSRRELSYLLSVKKYNDEGKPAKLSWISKDLNVSVASAYEEISHLESKGFLKKSDKGIFITDEGKKAIDSLLRAHRVIETFLVKIGLSPDQACNYTKQFDYSVPDEVIERIYEYLGKPEKCPHGENIPY | soluble
18 | GHMGITRDVQVPDVRGQSSADAIATLQNRGFKIRTLQKPDSTIPPDHVIGTDPAANTSVSAGDEITVNVSTGPEQREIPDVSTLTYAEAVKKLTAAGFGRFKQANSPSTPELVGKVIGTNPPANQTSAITNVVIIIVGSGPATKDIPDVAGQTVDVAQKNLNVYGFTKFSQASVDSPRPAGEVTGTNPPAGTTVPVDSVIELQVSKGNQFVMPDLSGMFWVDAEPRLRALGWTGMLDKGADVDAGGSQHNRVVYQNPPAGTGVNRDGIITLRFGQ | soluble
19 | GMMNTPESRLVAAGLELPEVAAALGNYEPYSIVGSQLMTSGQFPYLQGKLLYQGQLGADYTVSEGYAACRLATLNAIAQLKQACGELSRIKQIYRLEGVLNVHQSCIEHPKALDGASDLLLEIFGEAGRHSRMIWTNPVMPLNSLCLVYLFAEL | soluble
20 | MHPKDQSVTLLSIIRDYLKLSDKEREAARILANGLVKVDGKTVREKKFAVGFMDVIEINGESYRVVYNDQGALVLMKETKERASMKLLKVRSKVIAPGNRIQLGTHDGRTFITDDKSKKVGDVWAVSVPDMKISEIIKMQPGNKAYITAGSHVNQTGTISKIEAKEGSSANLVHFQEGFSTIKDHVFMIGSSKFSFVLSPEEVIPLEHHHHHH | soluble
21 | KKLLLIGAGRISYYLLNILKNNRIKVKLIEQKMDRAQTFSQVFPEVSVILGDGTAKDLLLEESAASYDAVATLTGVDEENIITSMFLESLGVHKNITKVNRTSLLEIVDTRETTTIVTPKSIAVDTVMHFVRGHYNA | not soluble
